What follows are molecules tested on GFP-tagged PRPF40A-Nter-MUT (assay: SILAC GFP-immunoprecipitation with quantitative mass spectrometry, mutant construct). Conditions: quantitative MS, Hela cells, protein by gene name.
Format: binding, human (Hela cells)
Description: The PRPF40A N-terminal region (isoform 2, residues 1-221) was PCR-amplified from RPE1 cDNA (ATCC, Cat# CRL-4000) cDNA. The sequence was amplified in two fragments and both fragments were combined by overhang. All PCRs were carried out using Q5 Polymerase (NEB) according to manufacturer’s protocol. The resulting PRPF40A N-terminal region was cloned into a GFP-expressing pcDNA5 vector (see pcDNA5 GFP vector in ref. [28]) using Q5 Site-Directed Mutagenesis Kit (NEB). Nter-MUT, containing the PPVP/PALPP motifs changed to AAAA/AAAAA, was obtained by mutating the N-ter-WW12-containing plasmid with Q5 site-directed mutagenesis. Plasmids were transformed into DH5alpha chemically competent cells. After culturing, DNA isolation was performed with either ZymoPURE Plasmid Miniprep Kit (Zymo Research) or QIAGEN Plasmid Plus Midi Kit (Qiagen). The sequence was confirmed by Sanger Sequencing (GATC Eurofins). All used oligonucleotides are shown in Supplementary Table 6.
Hela cells (ATCC, Cat# CCL-2, RRID:CVCL_0030) were cultured in DMEM SILAC medium (Thermo Fisher) supplemented with 10% filtered FBS (Sigma-Aldrich) and 1% penicillin-streptomycin (Thermo-Fisher). The SILAC medium contains either light (Arg0, Lys0), medium (Arg6, Lys4) or heavy (Arg10, Lys8) isotopes (Cambridge Isotopes Laboratories). Hela cells were cultivated for 14 days in SILAC medium to assure sufficient isotope incorporation. For transfection, 7 × 10^6 Hela cells were seeded in a 15 cm culture dish in 20 ml of respective SILAC medium and grown for 24 h. The cells were then transfected with 20 µg of plasmids expressing either GFP (Control), GFP-tagged N-ext-WW12 or GFP-tagged-N-ext-WW12-MUT utilizing 64 µl FuGENE (Promega) (ratio 1:3.2), according to manufacturer’s protocol.
24 h post-transfection, cells were washed twice in ice-cold PBS and harvested in 1 ml mRIPA buffer (50 mM Tris, 150 mM NaCl, 1 mM EDTA, 1% NP-40, 0.1% Na-deoxycholate), supplemented with 2 µl Turbo-DNase (Thermo Fisher) and 3 µl protease-inhibitor cocktail cOmplete (Sigma-Aldrich). Cell lysates were cleared by centrifugation at 16,000 × g, 4 °C, 15 min and concentration was measured using Pierce BCA Protein Assay kit (Thermo Scientific). The expressed constructs were pulled down by incubating 2.5 mg of lysate with 20 μl GFP-nanobody agarose beads (ChromoTek, GTA-20) for 1 h at 4 °C under constant agitation. Subsequently, beads were washed three times with mRIPA buffer without supplements, then eluted in 1X NuPAGE LDS sample buffer (Thermo Scientific). To detach the proteins from the beads, the eluate was heated to 70 °C for 10 min To evaluate the success of the immunoprecipitation, input (1%) and IP samples were analyzed on a NuPAGE 4–12% Bis-Tris-Acrylamide gel (Thermo Fisher) using NuPAGE MOPS SDS running buffer (Thermo Fisher). Proteins were stained using Sypro Ruby protein gel stain (Thermo Fisher) according to manufacturer’s protocol.
The eluted proteins of three SILAC states (light, medium, heavy) were combined. The proteins were then reduced in DTT, alkylated in iodoacetamide, and purified using the SP3 paramagnetic bead approach. This was followed by overnight enzymatic digestion using trypsin (1 µg per sample) in 50 mM ammonium bicarbonate at 37 °C. The peptide solution was then purified by solid phase extraction in C18 StageTips[99].
Peptides were separated by online reverse phase liquid chromatography using the EASY-nLC 1000 system (Thermo Scientific) in a 30-cm analytical column (inner diameter: 75 μm; heated at 50 °C) packed in-house with ReproSil-Pur 120 C18-AQ 1.9-μm beads (Dr. Maisch GmbH). The gradient separation was performed through a 105-min non-linear gradient of 1.6–32% acetonitrile with 0.1% formic acid at a nanoflow rate of 225 nl/min. The eluted peptides were sprayed directly by electrospray ionization into a Q Exactive Plus Orbitrap mass spectrometer (Thermo Scientific). […]

Row | Molecule | Immunoprecipitation enrichment MUT vs WT, log2 FC
1 | SF1 (protein, UniProt Q15637 2-639, looked up) Splicing factor 1: ATGANATPLDFPSKKRKRSRWNQDTMEQKTVIPGMPTVIPPGLTREQERAYIVQLQIEDLTRKLRTGDLGIPPNPEDRSPSPEPIYNSEGKRLNTREFRTRKKLEEERHNLITEMVALNPDFKPPADYKPPATRVSDKVMIPQDEYPEINFVGLLIGPRGNTLKNIEKECNAKIMIRGKGSVKEGKVGRKDGQMLPGEDEPLHALVTANTMENVKKAVEQIRNILKQGIETPEDQNDLRKMQLRELARLNGTLREDDNRILRPWQSSETRSITNTTVCTKCGGAGHIASDCKFQRPGDPQSAQDKARMDKEYLSLMAELGEAPVPASVGSTSGPATTPLASAPRPAAPANNPPPPSLMSTTQSRPPWMNSGPSESRPYHGMHGGGPGGPGGGPHSFPHPLPSLTGGHGGHPMQHNPNGPPPPWMQPPPPPMNQGPHPPGHHGPPPMDQYLGSTPVGSGVYRLHQGKGMMPPPPMGMMPPPPPPPSGQPPPPPSGPLPPWQQQQQQPPPPPPPSSSMASSTPLPWQQNTTTTTTSAGTGSIPPWQQQQAAAAASPGAPQMQGNPTMVPLPPGVQPPLPPGAPPPPPPPPPGSAGMMYAPPPPPPPPMDPSNFVTMMGMGVAGMPPFGMPPAPPPPPPQN | 0.9625
2 | RBM17 (protein, UniProt Q96I25 2-401, looked up) Splicing factor 45: SLYDDLGVETSDSKTEGWSKNFKLLQSQLQVKKAALTQAKSQRTKQSTVLAPVIDLKRGGSSDDRQIVDTPPHVAAGLKDPVPSGFSAGEVLIPLADEYDPMFPNDYEKVVKRQREERQRQRELERQKEIEEREKRRKDRHEASGFARRPDPDSDEDEDYERERRKRSMGGAAIAPPTSLVEKDKELPRDFPYEEDSRPRSQSSKAAIPPPVYEEQDRPRSPTGPSNSFLANMGGTVAHKIMQKYGFREGQGLGKHEQGLSTALSVEKTSKRGGKIIVGDATEKDASKKSDSNPLTEILKCPTKVVLLRNMVGAGEVDEDLEVETKEECEKYGKVGKCVIFEIPGAPDDEAVRIFLEFERVESAIKAVVDLNGRYFGGRVVKACFYNLDKFRVLDLAEQV | 1.293
3 | SF3B3 (protein, UniProt Q15393 1-1217, looked up) Splicing factor 3B subunit 3: MFLYNLTLQRATGISFAIHGNFSGTKQQEIVVSRGKILELLRPDPNTGKVHTLLTVEVFGVIRSLMAFRLTGGTKDYIVVGSDSGRIVILEYQPSKNMFEKIHQETFGKSGCRRIVPGQFLAVDPKGRAVMISAIEKQKLVYILNRDAAARLTISSPLEAHKANTLVYHVVGVDVGFENPMFACLEMDYEEADNDPTGEAAANTQQTLTFYELDLGLNHVVRKYSEPLEEHGNFLITVPGGSDGPSGVLICSENYITYKNFGDQPDIRCPIPRRRNDLDDPERGMIFVCSATHKTKSMFFFLAQTEQGDIFKITLETDEDMVTEIRLKYFDTVPVAAAMCVLKTGFLFVASEFGNHYLYQIAHLGDDDEEPEFSSAMPLEEGDTFFFQPRPLKNLVLVDELDSLSPILFCQIADLANEDTPQLYVACGRGPRSSLRVLRHGLEVSEMAVSELPGNPNAVWTVRRHIEDEFDAYIIVSFVNATLVLSIGETVEEVTDSGFLGTTPTLSCSLLGDDALVQVYPDGIRHIRADKRVNEWKTPGKKTIVKCAVNQRQVVIALTGGELVYFEMDPSGQLNEYTERKEMSADVVCMSLANVPPGEQRSRFLAVGLVDNTVRIISLDPSDCLQPLSMQALPAQPESLCIVEMGGTEKQDELGERGSIGFLYLNIGLQNGVLLRTVLDPVTGDLSDTRTRYLGSRPVKLFRVRMQGQEAVLAMSSRSWLSYSYQSRFHLTPLSYETLEFASGFASEQCPEGIVAISTNTLRILALEKLGAVFNQVAFPLQYTPRKFVIHPESNNLIIIETDHNAYTEATKAQRKQQMAEEMVEAAGEDERELAAEMAAAFLNENLPESIFGAPKAGNGQWASVIRVMNPIQGNTLDLVQLEQNEAAFSVAVCRFSNTGEDWYVLVGVAKDLILNPRSVAGGFVYTYKLVNNGEKLEFLHKTPVEEVPAAIAPFQGRVLIGVGKLLRVYDLGKKKLLRKCENKHIANYISGIQTIGHRVIVSDVQESFIWVRYKRNENQLIIFADDTYPRWVTTASLLDYDTVAGADKFGNICVVRLPPNTNDEVDEDPTGNKALWDRGLLNGASQKAEVIMNYHVGETVLSLQKTTLIPGGSESLVYTTLSGGIGILVPFTSHEDHDFFQHVEMHLRSEHPPLCGRDHLSFRSYYFPVKNVIDGDLCEQFNSMEPNKQKNVSEELDRTPPEVSKKLEDIRTRYAF | 0.8966
4 | SF3B2 (protein, UniProt Q13435 1-895, looked up) Splicing factor 3B subunit 2: MATEHPEPPKAELQLPPPPPPGHYGAWAAQELQAKLAEIGAPIQGNREELVERLQSYTRQTGIVLNRPVLRGEDGDKAAPPPMSAQLPGIPMPPPPLGLPPLQPPPPPPPPPPGLGLGFPMAHPPNLGPPPPLRVGEPVALSEEERLKLAQQQAALLMQQEERAKQQGDHSLKEHELLEQQKRAAVLLEQERQQEIAKMGTPVPRPPQDMGQIGVRTPLGPRVAAPVGPVGPTPTVLPMGAPVPRPRGPPPPPGDENREMDDPSVGPKIPQALEKILQLKESRQEEMNSQQEEEEMETDARSSLGQSASETEEDTVSVSKKEKNRKRRNRKKKKKPQRVRGVSSESSGDREKDSTRSRGSDSPAADVEIEYVTEEPEIYEPNFIFFKRIFEAFKLTDDVKKEKEKEPEKLDKLENSAAPKKKGFEEEHKDSDDDSSDDEQEKKPEAPKLSKKKLRRMNRFTVAELKQLVARPDVVEMHDVTAQDPKLLVHLKATRNSVPVPRHWCFKRKYLQGKRGIEKPPFELPDFIKRTGIQEMREALQEKEEQKTMKSKMREKVRPKMGKIDIDYQKLHDAFFKWQTKPKLTIHGDLYYEGKEFETRLKEKKPGDLSDELRISLGMPVGPNAHKVPPPWLIAMQRYGPPPSYPNLKIPGLNSPIPESCSFGYHAGGWGKPPVDETGKPLYGDVFGTNAAEFQTKTEEEEIDRTPWGELEPSDEESSEEEEEEESDEDKPDETGFITPADSGLITPGGFSSVPAGMETPELIELRKKKIEEAMDGSETPQLFTVLPEKRTATVGGAMMGSTHIYDMSTVMSRKGPAPELQGVEVALAPEELELDPMAMTQKYEEHVREQQAQVEKEDFSDMVAEHAAKQKQKKRKAQPQDSRGGSKKYKEFKF | 0.8966
5 | ATAD3A (protein, UniProt Q9NVI7 2-586, looked up) ATPase family AAA …: SWLFGINKGPKGEGAGPPPPLPPAQPGAEGGGDRGLGDRPAPKDKWSNFDPTGLERAAKAARELEHSRYAKDALNLAQMQEQTLQLEQQSKLKEYEAAVEQLKSEQIRAQAEERRKTLSEETRQHQARAQYQDKLARQRYEDQLKQQQLLNEENLRKQEESVQKQEAMRRATVEREMELRHKNEMLRVEAEARARAKAERENADIIREQIRLKAAEHRQTVLESIRTAGTLFGEGFRAFVTDWDKVTATVAGLTLLAVGVYSAKNATLVAGRFIEARLGKPSLVRETSRITVLEALRHPIQVSRRLLSRPQDALEGVVLSPSLEARVRDIAIATRNTKKNRSLYRNILMYGPPGTGKTLFAKKLALHSGMDYAIMTGGDVAPMGREGVTAMHKLFDWANTSRRGLLLFVDEADAFLRKRATEKISEDLRATLNAFLYRTGQHSNKFMLVLASNQPEQFDWAINDRINEMVHFDLPGQEERERLVRMYFDKYVLKPATEGKQRLKLAQFDYGRKCSEVARLTEGMSGREIAQLAVSWQATAYASEDGVLTEAMMDTRVQDAVQQHQQKMCWLKAEGPGRGDEPSPS | 1.016

Source: PMC11079029, “Intramolecular autoinhibition regulates the selectivity of PRPF40A tandem WW domains for proline-rich motifs” (Nature Communications, 2024)
